Test system: p33^QIK, quiescence induced kinase, 33-kDa Krsl-related cytoplasmic protein kinase, endogenous in mouse NIH3T3 cytosolic lysate (S20)

How did the “kinase activity of p33^QIK in Ab-KQ immune complexes after phosphatase treatment (in-gel kinase assay, MBP substrate)” value turn out when “Protein phosphatase 1 (PP1) (NE BioLabs)” was run?
The value was “treatment of activated p33^QIK with protein phosphatase PP1 ... resulted in deactivation of p33^QIK This deactivation was suppressed by phosphatase inhibitors”.

From patent US20030170252
